Reference: patent US20180155451A1 (published 2018)

T1: FcγRIIb extracellular domain with C-terminal His tag (human, UniProt P31994 43-217)
T1 construct: extracellular domain; also called FcgRIIb; 2b; not shown: His tag at the C terminus
T1 sequence (looked up): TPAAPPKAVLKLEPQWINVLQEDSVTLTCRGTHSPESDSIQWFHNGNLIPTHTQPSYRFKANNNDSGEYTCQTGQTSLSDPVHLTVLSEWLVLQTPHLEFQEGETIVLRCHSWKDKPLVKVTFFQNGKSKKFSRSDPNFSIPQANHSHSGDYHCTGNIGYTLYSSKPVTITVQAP


Assays:
[1] = target: T2, FcγRIIIa extracellular domain with C-terminal His tag (human, UniProt P08637 17-208); experiment: SPR (Biacore), captured antibody, FcγR as analyte; relative to GpH7-A5/GpH7-B3/GpL16-k0 = 100
T2 construct: extracellular domain; also called FcgRIIIa; 3a; not shown: His tag at the C terminus
T2 sequence (P08637 17-208): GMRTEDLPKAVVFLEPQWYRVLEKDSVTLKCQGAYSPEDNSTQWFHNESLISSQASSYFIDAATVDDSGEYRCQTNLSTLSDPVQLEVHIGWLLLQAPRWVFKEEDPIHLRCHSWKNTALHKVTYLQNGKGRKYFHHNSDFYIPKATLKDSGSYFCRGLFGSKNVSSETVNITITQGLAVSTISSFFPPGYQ
Description: (§1) Analysis of interaction between objective antibody and the FcγR was carried out using Biacore T100 (GE Healthcare). HBS-EP+ (GE Healthcare) was used as the running buffer, and the measurement temperature was set to 25° C. Chips produced by immobilizing the antigen peptide by the amine coupling method to a Series S Sencor Chip CM5 (GE Healthcare), or alternatively, chips produced by allowing preliminarily biotinylated antigen peptides to interact with and immobilize onto a Series S Sensor Chip SA (certified) (GE Healthcare) were used. Antibodies of interest were captured onto an antigen peptide-immobilized chip, and allowed to interact to each FcγR diluted with running buffer. To regenerate and repeatedly use the chip, the antibodies captured on the chip were washed off by reacting 10 mM glycine-HCl, pH 1.5.
(§2) The FcγR-binding activity of each antibody was assessed primarily using as an indicator the FcγR-binding activity and dissociation constant for FcγR.

[2] = target: T1, FcγRIIb extracellular domain with …; experiment: as above
Description: as §1, §2

Row | He/Con_3a (IIIa binding) [1] | He/Con_2b (IIb binding) [2] | Binder
1 | 66 % of HeCon Ab | 210 % of HeCon Ab | GpH7-A5/GpH7-B3 variant S267_06M/GpL16-k0 (heterodimerized antibody, He Ab) (antibody, human IgG1, kappa, Anti-glypican-3 IgG1; the alteration is in the GpH7-B3 chain only; also called S267M) heavy 1: not shown heavy 2: not shown light: DIVMTQSPLSLPVTPGEPASISCQASESLVHSNRNTYLHWYLQKPGQSPQLLIYKVSNRFSGVPDRFSGSGSGTDFTLKISRVEAEDVGVYYCSQNTHVPPTFGQGTKVEIERTVAAPSVFIFPPSDEQLKSGTASVVCLLNNFYPREAKVQWKVDNALQSGNSQESVTEQDSKDSTYSLSSTLTLSKADYEKHKVYACEVTHQGLSSPVTKSFNRGEC
2 | 76.6 % of HeCon Ab | 108 % of HeCon Ab | GpH7-A5/GpH7-B3 variant S239_03V/GpL16-k0 (heterodimerized antibody, He Ab) (antibody, human IgG1, kappa, Anti-glypican-3 IgG1; the alteration is in the GpH7-B3 chain only; also called S239V) heavy 1: not shown heavy 2: not shown light: DIVMTQSPLSLPVTPGEPASISCQASESLVHSNRNTYLHWYLQKPGQSPQLLIYKVSNRFSGVPDRFSGSGSGTDFTLKISRVEAEDVGVYYCSQNTHVPPTFGQGTKVEIERTVAAPSVFIFPPSDEQLKSGTASVVCLLNNFYPREAKVQWKVDNALQSGNSQESVTEQDSKDSTYSLSSTLTLSKADYEKHKVYACEVTHQGLSSPVTKSFNRGEC
3 | 49.7 % of HeCon Ab | 123 % of HeCon Ab | GpH7-A5/GpH7-B3 variant P238_20W/GpL16-k0 (heterodimerized antibody, He Ab) (antibody, human IgG1, kappa, Anti-glypican-3 IgG1; the alteration is in the GpH7-B3 chain only; also called P238W) heavy 1: not shown heavy 2: not shown light: DIVMTQSPLSLPVTPGEPASISCQASESLVHSNRNTYLHWYLQKPGQSPQLLIYKVSNRFSGVPDRFSGSGSGTDFTLKISRVEAEDVGVYYCSQNTHVPPTFGQGTKVEIERTVAAPSVFIFPPSDEQLKSGTASVVCLLNNFYPREAKVQWKVDNALQSGNSQESVTEQDSKDSTYSLSSTLTLSKADYEKHKVYACEVTHQGLSSPVTKSFNRGEC
4 | 44.9 % of HeCon Ab | 70.4 % of HeCon Ab | GpH7-A5/GpH7-B3 variant P238_13S/GpL16-k0 (heterodimerized antibody, He Ab) (antibody, human IgG1, kappa, Anti-glypican-3 IgG1; the alteration is in the GpH7-B3 chain only; also called P238S) heavy 1: not shown heavy 2: not shown light: DIVMTQSPLSLPVTPGEPASISCQASESLVHSNRNTYLHWYLQKPGQSPQLLIYKVSNRFSGVPDRFSGSGSGTDFTLKISRVEAEDVGVYYCSQNTHVPPTFGQGTKVEIERTVAAPSVFIFPPSDEQLKSGTASVVCLLNNFYPREAKVQWKVDNALQSGNSQESVTEQDSKDSTYSLSSTLTLSKADYEKHKVYACEVTHQGLSSPVTKSFNRGEC
5 | 14.9 % of HeCon Ab | 102 % of HeCon Ab | GpH7-A5/GpH7-B3 variant S239_05P/GpL16-k0 (heterodimerized antibody, He Ab) (antibody, human IgG1, kappa, Anti-glypican-3 IgG1; the alteration is in the GpH7-B3 chain only; also called S239P) heavy 1: not shown heavy 2: not shown light: DIVMTQSPLSLPVTPGEPASISCQASESLVHSNRNTYLHWYLQKPGQSPQLLIYKVSNRFSGVPDRFSGSGSGTDFTLKISRVEAEDVGVYYCSQNTHVPPTFGQGTKVEIERTVAAPSVFIFPPSDEQLKSGTASVVCLLNNFYPREAKVQWKVDNALQSGNSQESVTEQDSKDSTYSLSSTLTLSKADYEKHKVYACEVTHQGLSSPVTKSFNRGEC
6 | 28 % of HeCon Ab | 50.7 % of HeCon Ab | GpH7-A5/GpH7-B3 variant P238_14T/GpL16-k0 (heterodimerized antibody, He Ab) (antibody, human IgG1, kappa, Anti-glypican-3 IgG1; the alteration is in the GpH7-B3 chain only; also called P238T) heavy 1: not shown heavy 2: not shown light: DIVMTQSPLSLPVTPGEPASISCQASESLVHSNRNTYLHWYLQKPGQSPQLLIYKVSNRFSGVPDRFSGSGSGTDFTLKISRVEAEDVGVYYCSQNTHVPPTFGQGTKVEIERTVAAPSVFIFPPSDEQLKSGTASVVCLLNNFYPREAKVQWKVDNALQSGNSQESVTEQDSKDSTYSLSSTLTLSKADYEKHKVYACEVTHQGLSSPVTKSFNRGEC
7 | 78.2 % of HeCon Ab | 101 % of HeCon Ab | GpH7-A5/GpH7-B3 variant S239_06M/GpL16-k0 (heterodimerized antibody, He Ab) (antibody, human IgG1, kappa, Anti-glypican-3 IgG1; the alteration is in the GpH7-B3 chain only; also called S239M) heavy 1: not shown heavy 2: not shown light: DIVMTQSPLSLPVTPGEPASISCQASESLVHSNRNTYLHWYLQKPGQSPQLLIYKVSNRFSGVPDRFSGSGSGTDFTLKISRVEAEDVGVYYCSQNTHVPPTFGQGTKVEIERTVAAPSVFIFPPSDEQLKSGTASVVCLLNNFYPREAKVQWKVDNALQSGNSQESVTEQDSKDSTYSLSSTLTLSKADYEKHKVYACEVTHQGLSSPVTKSFNRGEC
8 | 25.2 % of HeCon Ab | 192 % of HeCon Ab | GpH7-A5/GpH7-B3 variant S267_07I/GpL16-k0 (heterodimerized antibody, He Ab) (antibody, human IgG1, kappa, Anti-glypican-3 IgG1; the alteration is in the GpH7-B3 chain only; also called S267I) heavy 1: not shown heavy 2: not shown light: DIVMTQSPLSLPVTPGEPASISCQASESLVHSNRNTYLHWYLQKPGQSPQLLIYKVSNRFSGVPDRFSGSGSGTDFTLKISRVEAEDVGVYYCSQNTHVPPTFGQGTKVEIERTVAAPSVFIFPPSDEQLKSGTASVVCLLNNFYPREAKVQWKVDNALQSGNSQESVTEQDSKDSTYSLSSTLTLSKADYEKHKVYACEVTHQGLSSPVTKSFNRGEC
9 | 76.2 % of HeCon Ab | 144 % of HeCon Ab | GpH7-A5/GpH7-B3 variant S239_01G/GpL16-k0 (heterodimerized antibody, He Ab) (antibody, human IgG1, kappa, Anti-glypican-3 IgG1; also called S239G) heavy 1: not shown heavy 2: not shown light: DIVMTQSPLSLPVTPGEPASISCQASESLVHSNRNTYLHWYLQKPGQSPQLLIYKVSNRFSGVPDRFSGSGSGTDFTLKISRVEAEDVGVYYCSQNTHVPPTFGQGTKVEIERTVAAPSVFIFPPSDEQLKSGTASVVCLLNNFYPREAKVQWKVDNALQSGNSQESVTEQDSKDSTYSLSSTLTLSKADYEKHKVYACEVTHQGLSSPVTKSFNRGEC
